{"source": "the Human Domainome abundance scans (Beltran et al. 2025)", "parents": {"B1": {"name": "POU domain, class 3, transcription factor 3, residues 408 to 463; numbered along this chain, P20264 (parent)", "chain": "KKRTSIEVSVKGALESHFLKCPKPSAQEITNLADSLQLEKEVVRVWFCNRRQKEKR"}}, "note": "± gives the uncertainty stated by the source.", "data": [{"variants_of": "B1", "assay": "abundance fitness (aPCA) (normalised: wild type 0, dead -1); higher = more abundant; growth selection in yeast, the domain comes from the species named", "settings": "Homo sapiens", "values": [{"variant": "KKRTSIEVSVKGALESHFLKCPKPSAQEITNLADSLQLEKEVVRVWFCNRRHKEKR", "abundance fitness": "-0.113 ± 0.15"}, {"variant": "KKRTSIEVSVKGALESHFLKCPKPSAQEITNLADSLQLEKEVVRVWFCNRRLKEKR", "abundance fitness": "-0.131 ± 0.078"}, {"variant": "KKRTSIEVSVKGALESHFLKCPKPSAQEITNLADSLQLEKEVVRVWFCNRRPKEKR", "abundance fitness": "-0.705 ± 0.14"}, {"variant": "KKRTSIEVSVKGALESHFLKCPKPSAQEITNLADSLQLEKEVVRVWFCNRREKEKR", "abundance fitness": "0.057 ± 0.14"}, {"variant": "KKRTSIEVSVKGALESHFLKCPKPSAQEITNLADSLQLEKEVVRVWFCNRRSKEKR", "abundance fitness": "0.014 ± 0.09"}, {"variant": "KKRTSIEVSVKGALESHFLKCPKPSAQEITNLADSLQLEKFVVRVWFCNRRQKEKR", "abundance fitness": "-1.1 ± 0.39"}, {"variant": "KKRTSIEVSVKGALESHFLKCPKPSAQEITNLADSLQLEKPVVRVWFCNRRQKEKR", "abundance fitness": "-0.933 ± 0.17"}, {"variant": "KKRTSIEVSVKGALESHFLKCPKPSAQEITNLADSLQLEKYVVRVWFCNRRQKEKR", "abundance fitness": "-0.625 ± 0.17"}, {"variant": "KKRTSIEVSVKGALESHFLKCPKPSAQEITNLADSLQLEKEVVVVWFCNRRQKEKR", "abundance fitness": "-0.224 ± 0.37"}, {"variant": "KKGTSIEVSVKGALESHFLKCPKPSAQEITNLADSLQLEKEVVRVWFCNRRQKEKR", "abundance fitness": "0.04 ± 0.064"}, {"variant": "KKYTSIEVSVKGALESHFLKCPKPSAQEITNLADSLQLEKEVVRVWFCNRRQKEKR", "abundance fitness": "-0.267 ± 0.19"}, {"variant": "KKMTSIEVSVKGALESHFLKCPKPSAQEITNLADSLQLEKEVVRVWFCNRRQKEKR", "abundance fitness": "0.045 ± 0.11"}, {"variant": "KKPTSIEVSVKGALESHFLKCPKPSAQEITNLADSLQLEKEVVRVWFCNRRQKEKR", "abundance fitness": "-0.2 ± 0.13"}, {"variant": "KKRTSIEVSVKGALESHFLKCPKPSAQEITNLADSLQLRKEVVRVWFCNRRQKEKR", "abundance fitness": "-0.327 ± 0.064"}, {"variant": "KFRTSIEVSVKGALESHFLKCPKPSAQEITNLADSLQLEKEVVRVWFCNRRQKEKR", "abundance fitness": "0.056 ± 0.16"}, {"variant": "KGRTSIEVSVKGALESHFLKCPKPSAQEITNLADSLQLEKEVVRVWFCNRRQKEKR", "abundance fitness": "-0.025 ± 0.089"}, {"variant": "KKRTSIEVSVKGALESHFLKCPKPSAQEITNLADSLQMEKEVVRVWFCNRRQKEKR", "abundance fitness": "-0.13 ± 0.095"}, {"variant": "KKRTSIEVSVKGALESHFLKCPKPSAQEITNLADSLQGEKEVVRVWFCNRRQKEKR", "abundance fitness": "-0.943 ± 0.076"}, {"variant": "KKRTSIEVSVKGALESHFLKCPKPSAQEITNLADSLQREKEVVRVWFCNRRQKEKR", "abundance fitness": "-0.889 ± 0.08"}, {"variant": "KKRTSIEVSVKGALESHFLKCPKPSAQEITNLADILQLEKEVVRVWFCNRRQKEKR", "abundance fitness": "-0.122 ± 0.11"}, {"variant": "KKRTSIEVSVKGALESHFLKCPKPSAQEITNLADDLQLEKEVVRVWFCNRRQKEKR", "abundance fitness": "-0.158 ± 0.13"}, {"variant": "KKRTSIEVSVKGALESHFLKCPKPRAQEITNLADSLQLEKEVVRVWFCNRRQKEKR", "abundance fitness": "-0.398 ± 0.065"}, {"variant": "KKRTSIEVSVKGALESHFLKCPKPFAQEITNLADSLQLEKEVVRVWFCNRRQKEKR", "abundance fitness": "-0.773 ± 0.25"}, {"variant": "KKRTSIEVSVKGALESHNLKCPKPSAQEITNLADSLQLEKEVVRVWFCNRRQKEKR", "abundance fitness": "-1.18 ± 0.24"}, {"variant": "KKRTSIEVSVKGALESHELKCPKPSAQEITNLADSLQLEKEVVRVWFCNRRQKEKR", "abundance fitness": "-0.875 ± 0.12"}, {"variant": "KKRTSIEVSVKGALESHFLKCPKPSAQEITNLADSLELEKEVVRVWFCNRRQKEKR", "abundance fitness": "-0.042 ± 0.097"}, {"variant": "KKRTSIEVSVKGALESHFLKCPKPSAQEITNLADSLQLEKEVVRRWFCNRRQKEKR", "abundance fitness": "-0.109 ± 0.057"}, {"variant": "KKRTSIEVSVKGALESHFLKCPKPSAQEITNLADSLQLEKEVVREWFCNRRQKEKR", "abundance fitness": "0.034 ± 0.08"}, {"variant": "KKRTSIEVSVKGALESHFLKCPKPSAQEITNLADSLQLEKEVVRSWFCNRRQKEKR", "abundance fitness": "0.032 ± 0.064"}, {"variant": "KKRTSIEVSVKGANESHFLKCPKPSAQEITNLADSLQLEKEVVRVWFCNRRQKEKR", "abundance fitness": "-1.01 ± 0.18"}, {"variant": "KKRTSIEVSVKGAIESHFLKCPKPSAQEITNLADSLQLEKEVVRVWFCNRRQKEKR", "abundance fitness": "-0.45 ± 0.2"}, {"variant": "KKRTSIEVSVKGAFESHFLKCPKPSAQEITNLADSLQLEKEVVRVWFCNRRQKEKR", "abundance fitness": "-0.899 ± 0.29"}, {"variant": "KKRTSIEVSVKGALESHFLKCPKPSAQEITNLADSLQLEKEVVRVWFCNRRQSEKR", "abundance fitness": "0.068 ± 0.082"}, {"variant": "KKRTSIEVSVKGALESHFLKCPKPSAQEITNLADSLQLEKEVVRVWFCNRRQFEKR", "abundance fitness": "-0.156 ± 0.15"}, {"variant": "KKRTSIEVSVKGALESHFLKCPKPSAQEITNLADSLQLEKEVVRVWFCNRRQQEKR", "abundance fitness": "-0.041 ± 0.1"}, {"variant": "KKRTSIEVSVKGALESHFLKCPKPSAQEITNLADSLQLEKEVVRVWFCNRRQKEKM", "abundance fitness": "0.002 ± 0.31"}, {"variant": "KKRTSIEVSVKGALESHFLKCPKPSAQEITNLADSLQLEKEVVRVWFCNRRQKEKS", "abundance fitness": "-0.151 ± 0.27"}, {"variant": "KKRTSIEVTVKGALESHFLKCPKPSAQEITNLADSLQLEKEVVRVWFCNRRQKEKR", "abundance fitness": "-0.051 ± 0.13"}, {"variant": "KKRTSIEVPVKGALESHFLKCPKPSAQEITNLADSLQLEKEVVRVWFCNRRQKEKR", "abundance fitness": "-0.068 ± 0.18"}, {"variant": "KKRTSIEVSVKIALESHFLKCPKPSAQEITNLADSLQLEKEVVRVWFCNRRQKEKR", "abundance fitness": "0.051 ± 0.16"}, {"variant": "KKRTSIEVSVKCALESHFLKCPKPSAQEITNLADSLQLEKEVVRVWFCNRRQKEKR", "abundance fitness": "0.096 ± 0.12"}, {"variant": "KKRTSIEVSVKGALESHFLKCPKPSPQEITNLADSLQLEKEVVRVWFCNRRQKEKR", "abundance fitness": "0.039 ± 0.13"}, {"variant": "KKRTSIEVSVKGSLESHFLKCPKPSAQEITNLADSLQLEKEVVRVWFCNRRQKEKR", "abundance fitness": "-0.079 ± 0.089"}, {"variant": "KKRTSIEVSVKGQLESHFLKCPKPSAQEITNLADSLQLEKEVVRVWFCNRRQKEKR", "abundance fitness": "-0.099 ± 0.11"}, {"variant": "KKRTSIEVSVKGALEQHFLKCPKPSAQEITNLADSLQLEKEVVRVWFCNRRQKEKR", "abundance fitness": "0.012 ± 0.14"}, {"variant": "KKRTSIEVSVKGALEMHFLKCPKPSAQEITNLADSLQLEKEVVRVWFCNRRQKEKR", "abundance fitness": "-0.076 ± 0.12"}, {"variant": "KKRTQIEVSVKGALESHFLKCPKPSAQEITNLADSLQLEKEVVRVWFCNRRQKEKR", "abundance fitness": "0.203 ± 0.12"}]}]}
